Among the data in patent US20180312587A1 are EC50 values, retold here.

For experiment [1], the target named is hSIRPαV1(P74A) (human) (UniProt P78324). In words: CELISA, CHO-K1 transfectants.
The target of experiment [2] is human SIRPα variant 1 (human) (UniProt P78324). In words: CELISA, CHO-K1 transfectants.
Experiment [3] concerns the target human SIRPα variant 2 (human) (UniProt P78324). Put plainly: CELISA, CHO-K1 transfectants; extrapolated.
The target of experiment [4] is human SIRPα variant 1 (human) (UniProt P78324). In words: CELISA, CHO-K1 transfectants; extrapolated.
The target of experiment [5] is human SIRPβ1 (human) (UniProt O00241). Put plainly: CELISA, CHO-K1 transfectants.
Experiment [6] has as its target hSIRPβ1 transcript variant 3/hSIRPβL (human) (UniProt Q5TFQ8). In words: CELISA, CHO-K1 transfectants; extrapolated.
Experiment [7] has as its target human SIRPβ1 (human) (UniProt O00241). In words: CELISA, CHO-K1 transfectants; extrapolated.
Experiment [8] concerns the target human SIRPγ (human) (UniProt Q9P1W8). In words: CELISA, CHO-K1 transfectants; extrapolated.
Experiment [9] deals with hSIRP-VβC1γC2β (human) (UniProt O00241). In words: CELISA, CHO-K1 transfectants, domain exchange study.
In experiment [10] the target is human SIRPα variant 2 (human) (UniProt P78324). Described as above.
The target of experiment [11] is human SIRPα variant 1 (human) (UniProt P78324). Described as above.
For experiment [12], the target named is hSIRP-VγC1βC2β (human) (UniProt O00241). The description is as above.
Experiment [13] has as its target hSIRP-VβC1βC2γ (human) (UniProt O00241). The description is as above.
Experiment [14] has as its target human SIRPβ1 (human) (UniProt O00241). The description is as above.
Experiment [15] addresses human SIRPα variant 2 (human) (UniProt P78324). In words: CELISA, CHO-K1 transfectants; n = 1.
Experiment [16] has as its target human SIRPα variant 1 (human) (UniProt P78324). Put plainly: CELISA, CHO-K1 transfectants; n = 1.
Experiment [17] has as its target human SIRPβ1 (human) (UniProt O00241). In words: CELISA, CHO-K1 transfectants; n = 1.
Experiment [18] deals with human SIRPγ (human) (UniProt Q9P1W8). Put plainly: CELISA, CHO-K1 transfectants; n = 1.
Experiment [19] has as its target hSIRPαV8 (NA18570_V8) (human) (UniProt P78324). Put plainly: CELISA, CHO-K1 transfectants; average of two experiments.
For experiment [20], the target named is human SIRPα variant 2 (human) (UniProt P78324). Described as above.
Experiment [21] has as its target human SIRPα variant 1 (human) (UniProt P78324). Described as above.
In experiment [22] the target is hSIRPαV5 (NA18502_V5) (human) (UniProt P78324). Described as above.
Experiment [23] has as its target hSIRPαV9 (NA18943_V9) (human) (UniProt P78324). Described as above.
The target in experiment [24] is hSIRPαV6 (NA18507_V6) (human) (UniProt P78324). The experiment is described as above.
Experiment [25] addresses hSIRPαV4 (NA11832_V4) (human) (UniProt P78324). Described as above.
Experiment [26] deals with hSIRPαV3 (NA07056_V3) (human) (UniProt P78324). The experiment is described as above.
In experiment [27] the target is human SIRPα variant 2 (human) (UniProt P78324). Put plainly: CELISA, CHO-K1 transfectants, domain exchange study. This is another data set of the same source.
The target of experiment [28] is human SIRPα variant 1 (human) (UniProt P78324). The experiment is described as above. The source holds these as a separate data set.
Experiment [29] concerns the target hSIRPα-VαC1αC2β (human) (UniProt P78324). The experiment is described as above.
For experiment [30], the target named is hSIRPα-VβC1αC2α (human) (UniProt P78324). The experiment is described as above.
The target in experiment [31] is human SIRPβ1 (human) (UniProt O00241). Described as above. The source holds these as a separate data set.
Experiment [32] deals with hSIRPα-VαC1βC2α (human) (UniProt P78324). The description is as above.
Experiment [33] has as its target human SIRPα variant 2 (human) (UniProt P78324). In words: CELISA, CHO-K1 transfectants.
The target in experiment [34] is human SIRPα variant 1 (human) (UniProt P78324). In words: CELISA, CHO-K1 transfectants. The source holds these as a separate data set.
Experiment [35] has as its target hSIRPβ1 transcript variant 3/hSIRPβL (human) (UniProt Q5TFQ8). Put plainly: CELISA, CHO-K1 transfectants.
Experiment [36] concerns the target human SIRPβ1 (human) (UniProt O00241). In words: CELISA, CHO-K1 transfectants. The source holds these as a separate data set.
Experiment [37] concerns the target human SIRPγ (human) (UniProt Q9P1W8). In words: CELISA, CHO-K1 transfectants.
Experiment [38] addresses hSIRPαV1(P74A) (human) (UniProt P78324). In words: CELISA, CHO-K1 transfectants, point mutant study.
Experiment [39] deals with human SIRPα variant 1 (human) (UniProt P78324). Put plainly: CELISA, CHO-K1 transfectants, point mutant study.
The target in experiment [40] is hSIRPαV1(P74A) (human) (UniProt P78324). Put plainly: CELISA, CHO-K1 transfectants, point mutant study. This is another data set of the same source.
Experiment [41] concerns the target human SIRPα variant 1 (human) (UniProt P78324). Put plainly: CELISA, CHO-K1 transfectants, point mutant study. This is another data set of the same source.
For experiment [42], the target named is human SIRPβ1 (human) (UniProt O00241). Put plainly: CELISA, CHO-K1 transfectants, point mutant study.

By EC50 is commonly meant the concentration needed to bring the measured effect to its halfway point.

Some results are limits rather than exact numbers.

Sequence of human SIRPα variant 2 (human) (P78324 other isoform, or with tags, fused parts or gaps mutant limits assumed): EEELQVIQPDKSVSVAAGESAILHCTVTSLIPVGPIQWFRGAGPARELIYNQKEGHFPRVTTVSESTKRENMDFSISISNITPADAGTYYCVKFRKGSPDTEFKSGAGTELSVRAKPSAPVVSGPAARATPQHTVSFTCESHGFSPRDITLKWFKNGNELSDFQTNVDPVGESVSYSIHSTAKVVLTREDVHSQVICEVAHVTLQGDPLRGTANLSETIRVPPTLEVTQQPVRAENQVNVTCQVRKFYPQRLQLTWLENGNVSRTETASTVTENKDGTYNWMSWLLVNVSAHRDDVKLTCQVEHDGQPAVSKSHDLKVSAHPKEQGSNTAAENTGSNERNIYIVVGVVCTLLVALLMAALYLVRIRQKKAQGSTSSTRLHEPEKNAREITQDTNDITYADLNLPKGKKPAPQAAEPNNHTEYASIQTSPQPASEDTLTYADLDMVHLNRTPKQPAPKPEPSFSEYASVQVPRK
Sequence of hSIRPβ1 transcript variant 3/hSIRPβL (human) (Q5TFQ8 30-398 limits assumed, change not shown): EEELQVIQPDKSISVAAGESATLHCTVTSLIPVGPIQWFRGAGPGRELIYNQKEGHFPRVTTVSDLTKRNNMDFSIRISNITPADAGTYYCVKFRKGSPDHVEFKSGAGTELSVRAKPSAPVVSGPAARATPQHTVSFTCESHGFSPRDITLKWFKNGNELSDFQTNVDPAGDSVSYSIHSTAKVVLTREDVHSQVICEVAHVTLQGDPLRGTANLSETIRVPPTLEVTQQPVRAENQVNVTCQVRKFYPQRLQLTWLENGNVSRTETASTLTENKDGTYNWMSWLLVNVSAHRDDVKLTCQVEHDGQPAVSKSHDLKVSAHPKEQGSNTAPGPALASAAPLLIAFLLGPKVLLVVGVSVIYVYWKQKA
Sequence of human SIRPβ1 (human) (O00241 30-398 limits assumed): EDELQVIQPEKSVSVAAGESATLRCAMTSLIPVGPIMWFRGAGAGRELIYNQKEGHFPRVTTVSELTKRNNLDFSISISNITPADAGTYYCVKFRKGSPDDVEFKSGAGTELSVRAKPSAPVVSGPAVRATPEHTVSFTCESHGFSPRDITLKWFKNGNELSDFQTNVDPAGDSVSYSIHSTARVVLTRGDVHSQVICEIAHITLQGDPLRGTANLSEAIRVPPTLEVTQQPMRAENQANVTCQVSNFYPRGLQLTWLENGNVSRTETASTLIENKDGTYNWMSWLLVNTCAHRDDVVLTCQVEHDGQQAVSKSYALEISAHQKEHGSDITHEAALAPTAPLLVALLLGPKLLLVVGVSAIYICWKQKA
Sequence of hSIRPαV1(P74A) (human) (P78324 31-504 P74A limits assumed): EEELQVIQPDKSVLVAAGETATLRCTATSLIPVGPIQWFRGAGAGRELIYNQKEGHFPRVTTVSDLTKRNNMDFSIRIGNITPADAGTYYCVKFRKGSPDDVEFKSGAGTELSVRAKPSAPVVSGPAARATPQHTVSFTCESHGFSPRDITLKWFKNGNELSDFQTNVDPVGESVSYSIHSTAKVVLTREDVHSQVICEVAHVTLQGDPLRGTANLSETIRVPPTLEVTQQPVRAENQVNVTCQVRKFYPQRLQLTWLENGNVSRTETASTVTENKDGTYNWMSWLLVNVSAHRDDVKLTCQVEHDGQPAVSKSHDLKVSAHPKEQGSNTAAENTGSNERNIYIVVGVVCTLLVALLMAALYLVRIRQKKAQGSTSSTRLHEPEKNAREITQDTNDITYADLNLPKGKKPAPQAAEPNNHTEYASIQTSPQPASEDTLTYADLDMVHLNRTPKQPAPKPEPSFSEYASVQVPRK
Sequence of human SIRPγ (human) (Q9P1W8 29-387 limits assumed): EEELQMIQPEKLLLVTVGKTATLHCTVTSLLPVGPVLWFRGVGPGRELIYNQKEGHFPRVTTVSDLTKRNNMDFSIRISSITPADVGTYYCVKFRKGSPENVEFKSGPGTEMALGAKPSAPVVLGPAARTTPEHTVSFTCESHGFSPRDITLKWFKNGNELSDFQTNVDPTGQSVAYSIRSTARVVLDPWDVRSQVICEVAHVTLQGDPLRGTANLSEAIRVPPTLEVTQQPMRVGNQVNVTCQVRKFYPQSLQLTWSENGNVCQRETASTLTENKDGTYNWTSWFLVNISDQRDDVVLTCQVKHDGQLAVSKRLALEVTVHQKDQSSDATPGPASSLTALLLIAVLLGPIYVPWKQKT
Sequence of human SIRPα variant 1 (human) (P78324 31-504 limits assumed, stated change not applied): as the sequence (P78324 31-504 P74A limits assumed) above, with A44P counted along it
Sequence of hSIRPα-VαC1βC2α (human) (P78324 other isoform, or with tags, fused parts or gaps limits assumed): as the sequence (P78324 31-504 P74A limits assumed) above, with A44P, A128V, Q133E, V171A, E173D, K184R, E190G, V200I, V203I counted along it
Sequence of hSIRP-VβC1γC2β (human) (O00241 other isoform, or with tags, fused parts or gaps limits assumed): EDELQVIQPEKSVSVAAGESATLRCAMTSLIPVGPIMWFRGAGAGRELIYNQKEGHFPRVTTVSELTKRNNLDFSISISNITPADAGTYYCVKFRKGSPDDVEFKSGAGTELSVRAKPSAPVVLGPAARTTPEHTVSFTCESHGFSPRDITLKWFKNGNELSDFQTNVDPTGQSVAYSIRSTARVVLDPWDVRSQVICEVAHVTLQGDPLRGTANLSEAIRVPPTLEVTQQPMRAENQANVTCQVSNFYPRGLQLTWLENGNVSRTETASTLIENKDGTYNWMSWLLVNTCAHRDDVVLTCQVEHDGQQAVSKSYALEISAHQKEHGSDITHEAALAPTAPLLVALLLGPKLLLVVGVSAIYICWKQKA
Sequence of hSIRPαV8 (NA18570_V8) (human) (P78324 other isoform, or with tags, fused parts or gaps limits assumed): as the sequence (P78324 other isoform, or with tags, fused parts or gaps mutant limits assumed) above, with S14L, S20T, I22T, H24R, V27A counted along it
Sequence of hSIRPαV6 (NA18507_V6) (human) (P78324 31-504 S105P limits assumed): as the sequence (P78324 31-504 P74A limits assumed) above, with A44P, S75P counted along it
Sequence of hSIRPαV5 (NA18502_V5) (human) (P78324 other isoform, or with tags, fused parts or gaps limits assumed): as the sequence (P78324 31-504 P74A limits assumed) above, with S12F, A44P counted along it

Consider anti-hSIRPα (clone D6I3M) (antibody), for which the EC50 in [1] was over 122 nM; in experiment [2] it was over 6.41 nM; in [3], 8.76 nM; in experiment [4], 18.7 nM.
In the case of anti-hSIRPα (clone EPR16264) (antibody), the EC50 was over 2 nM in experiment [1], over 1.17 nM in [2] and 2.45 nM in experiment [3].
anti-hSIRPα (clone REA144) (antibody): the EC50 in experiment [1] is over 4.79 nM; in [2] it was over 3.66 nM; in [5], over 3.08 nM; in experiment [3], 3.27 nM; in experiment [4] it was 5.24 nM; in experiment [6], 2.15 nM. Moreover, the EC50 in experiment [7] is 4.53 nM; in experiment [8] it was 3.21 nM.
As for anti-hSIRPα (clone SE5A5) (antibody), the EC50 in experiment [9] came to 0.309 nM; in experiment [10], 0.224 nM; in experiment [11] it was 0.35 nM; in experiment [12], 0.287 nM; in [13], 0.231 nM; in experiment [14], 0.249 nM. The EC50 was 0.2 nM in experiment [15]; 0.304 nM in [16]; 0.192 nM in [17]; 0.168 nM in experiment [18]; 0.207 nM in [1]; 0.156 nM in [2]. The EC50 is 0.105 nM in [5]; 0.3 nM in [19]; 0.2 nM in experiment [20]; 0.327 nM in [21]; 0.276 nM in [22]; 0.26 nM in experiment [23]. Also, the EC50 in experiment [24] was 0.098 nM; in experiment [25], 0.256 nM; in [26], 0.226 nM; in experiment [27], 0.084 nM; in [28], 0.117 nM; in [29], 0.127 nM. In addition, the EC50 in [30] stood at 0.121 nM; in [31] it was 0.18 nM; in [32] it was 0.135 nM; in [33] it was 0.186 nM; in [34], 0.372 nM; in experiment [35], 0.122 nM. The EC50 in experiment [36] amounted to 0.185 nM; in experiment [37], 0.2 nM; in experiment [38], 0.149 nM; in [39], 0.163 nM; in [40] it was 0.15 nM; in experiment [41] it was 0.164 nM. For the same substance, the EC50 in [42] came to 0.156 nM.
As to anti-hSIRPα (clone SE7C2) (antibody), the EC50 was over 6.14 nM in experiment [1]; over 7.01 nM in experiment [2]; 0.3 nM in [33]; 1.52 nM in [37]; 1.27 nM in [4]; 26.8 nM in [6].
With anti-hSIRPγ (clone LSB2.20) (antibody), the EC50 in [18] turned out to be 0.265 nM.
